Experimental data: publication PMC3726324, “Characterization of the PAS domain in the sensor-kinase BvgS: mechanical role in signal transmission” (BMC Microbiology, 2013)

How the values were obtained:
[1] = target: recombinant PASBvg protein N2C2 (BvgS residues 573-714) (Bordetella pertussis) (UniProt P16575); test: SEC; size-exclusion chromatography of the purified recombinant proteins; data not shown
[2] = target: recombinant PASBvg protein N3C2 (BvgS residues 581-714) (Bordetella pertussis) (UniProt P16575); test: as above
[3] = target: recombinant PASBvg protein N3C3 (BvgS residues 581-720) (Bordetella pertussis) (UniProt P16575); test: as above
[4] = target: recombinant PASBvg protein N2C3 (BvgS residues 573-720) (Bordetella pertussis) (UniProt P16575); test: native MS; ESI-Q-TOF, positive ion mode, native conditions; purified N2C3 at 10 uM in 27 mM ammonium acetate
[5] = target: recombinant PASBvg protein N2C3 (BvgS residues 573-720) (Bordetella pertussis) (UniProt P16575); test: SEC; size-exclusion chromatography of the purified recombinant proteins; data not shown
[6] = target: the molecule itself; test: not stated; oligomeric state of the purified or soluble N2C3 variants; method not named; not shown

“recombinant PASBvg protein N2C2 (BvgS residues 573-714) (from UniProt P16575 573-714) (domain or fragment)” gave a stoichiometry N [1] of 2.

With “recombinant PASBvg protein N3C2 (BvgS residues 581-714) (from UniProt P16575 581-714) (domain or fragment)” the stoichiometry N [2] was 2.

Work on “recombinant PASBvg protein N3C3 (BvgS residues 581-720) (from UniProt P16575 581-720) (domain or fragment)” yielded a stoichiometry N [3] of 2.

With “recombinant PASBvg protein N2C3 (BvgS residues 573-720) (from UniProt P16575 573-720) (domain or fragment)” the stoichiometry N [4] was 2 and the stoichiometry N [5] was 2.

B1: N2C3 Asn608Ala (BvgS residues 573-720, N608A) (domain or fragment)
chain: AERALNDQLEFMRVLIDGTPNPIYVRDKEGRMLLCADAYLDTFGVTADAVLGKTIPEANVVGDPALAREMHEFLLTRVAAEREPRFEDRDVTLHGRTRHVYQWTIPYGDSLGELKGIIGGWIDITERAELLRELHDAKESADAANRAK
notes: numbering from the initiation Met of full-length BvgS; source: E. coli BL21 (DE3), pASK-IBA35+, soluble fraction; produced in very low amounts
B1 was tested, and the “stoichiometry N” value [6] was 2.

B2: N2C3 Arg670Ala (BvgS residues 573-720, R670A) (domain or fragment)
chain: AERALNDQLEFMRVLIDGTPNPIYVRDKEGRMLLCNDAYLDTFGVTADAVLGKTIPEANVVGDPALAREMHEFLLTRVAAEREPRFEDRDVTLHGRTAHVYQWTIPYGDSLGELKGIIGGWIDITERAELLRELHDAKESADAANRAK
notes: numbering from the initiation Met of full-length BvgS; source: E. coli BL21 (DE3), pASK-IBA35+, purified
For B2, the “stoichiometry N” value [6] was 2.

B3: N2C3 Asp695Ala (BvgS residues 573-720, D695A) (domain or fragment)
chain: AERALNDQLEFMRVLIDGTPNPIYVRDKEGRMLLCNDAYLDTFGVTADAVLGKTIPEANVVGDPALAREMHEFLLTRVAAEREPRFEDRDVTLHGRTRHVYQWTIPYGDSLGELKGIIGGWIAITERAELLRELHDAKESADAANRAK
notes: as for B2
B3 was tested, and the “stoichiometry N” value [6] was 2.

B4: N2C3 Tyr596Ala + Asn631Ala (BvgS residues 573-720, Y596A + N631A) (domain or fragment)
chain: AERALNDQLEFMRVLIDGTPNPIAVRDKEGRMLLCNDAYLDTFGVTADAVLGKTIPEAAVVGDPALAREMHEFLLTRVAAEREPRFEDRDVTLHGRTRHVYQWTIPYGDSLGELKGIIGGWIDITERAELLRELHDAKESADAANRAK
notes: as for B2
With B4 the “stoichiometry N” value [6] was 2.

B5: N2C3 Cys607Ala (BvgS residues 573-720, C607A) (domain or fragment)
chain: AERALNDQLEFMRVLIDGTPNPIYVRDKEGRMLLANDAYLDTFGVTADAVLGKTIPEANVVGDPALAREMHEFLLTRVAAEREPRFEDRDVTLHGRTRHVYQWTIPYGDSLGELKGIIGGWIDITERAELLRELHDAKESADAANRAK
notes: as for B2
B5 was tested, and the “stoichiometry N” value [6] was 2.

B6: N2C3 His643Ala (BvgS residues 573-720, H643A) (domain or fragment)
chain: AERALNDQLEFMRVLIDGTPNPIYVRDKEGRMLLCNDAYLDTFGVTADAVLGKTIPEANVVGDPALAREMAEFLLTRVAAEREPRFEDRDVTLHGRTRHVYQWTIPYGDSLGELKGIIGGWIDITERAELLRELHDAKESADAANRAK
notes: as for B2
For B6, the “stoichiometry N” value [6] was 2.

B7: N2C3 Asn608Ser (BvgS residues 573-720, N608S) (domain or fragment)
chain: AERALNDQLEFMRVLIDGTPNPIYVRDKEGRMLLCSDAYLDTFGVTADAVLGKTIPEANVVGDPALAREMHEFLLTRVAAEREPRFEDRDVTLHGRTRHVYQWTIPYGDSLGELKGIIGGWIDITERAELLRELHDAKESADAANRAK
notes: as for B2
For B7, the “stoichiometry N” value [6] was 2.
